According to article PMC6045628 (Scientific Reports, 2018):

B1: E. coli glutamine synthetase fused to mEGFP (GlnA-mEGFP) (enzyme, UniProt P0A9C5 1-469, looked up)
chain: MSAEHVLTMLNEHEVKFVDLRFTDTKGKEQHVTIPAHQVNAEFFEEGKMFDGSSIGGWKGINESDMVLMPDASTAVIDPFFADSTLIIRCDILEPGTLQGYDRDPRSIAKRAEDYLRSTGIADTVLFGPEPEFFLFDDIRFGSSISGSHVAIDDIEGAWNSSTQYEGGNKGHRPAVKGGYFPVPPVDSAQDIRSEMCLVMEQMGLVVEAHHHEVATAGQNEVATRFNTMTKKADEIQIYKYVVHNVAHRFGKTATFMPKPMFGDNGSGMHCHMSLSKNGVNLFAGDKYAGLSEQALYYIGGVIKHAKAINALANPTTNSYKRLVPGYEAPVMLAYSARNRSASIRIPVVSSPKARRIEVRFPDPAANPYLCFAALLMAGLDGIKNKIHPGEAMDKNLYDLPPEEAKEIPQVAGSLEEALNELDLDREFLKAGGVFTDEAIDAYIALRREEDDRVRMTPHPVEFELYYSV
notes: also called GlnA complex; copies: 12

Key:
[1] = target: Influenza A virus hemagglutinin fused to mEGFP (HA-wt-mEGFP) (Influenza A virus)
[2] = target: the molecule itself; experiment: Number&Brightness analysis (fluorescence fluctuation spectroscopy, molecular brightness); living U2OS cells expressing the mEGFP fusion; brightness normalised to 1xmEGFP and corrected for non-fluorescent mEGFP with pf = 0.72 from 2xmEGFP

Molecule	stoichiometry N [1]	stoichiometry N [2]
Influenza A virus hemagglutinin fused to mEGFP (HA-wt-mEGFP) (natural protein)	3.17	
B1		11.9
